Source: patent US20210230287A1 (WUXI BIOLOGICS SHANGHAI, published 2021)

T1: mouse 4-1BB extracellular domain, His tag (mouse, UniProt P20334 24-187)
T1 construct: extracellular domain; also called mPro1.ECD.His; not shown: His tag
T1 sequence (looked up): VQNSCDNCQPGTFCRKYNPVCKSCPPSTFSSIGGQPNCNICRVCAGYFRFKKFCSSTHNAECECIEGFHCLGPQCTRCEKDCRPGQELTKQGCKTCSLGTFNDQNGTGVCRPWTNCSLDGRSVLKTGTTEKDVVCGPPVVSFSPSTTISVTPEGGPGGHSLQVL

T2: OX40 (human, UniProt P43489 29-216, limits assumed)
T2 sequence (looked up): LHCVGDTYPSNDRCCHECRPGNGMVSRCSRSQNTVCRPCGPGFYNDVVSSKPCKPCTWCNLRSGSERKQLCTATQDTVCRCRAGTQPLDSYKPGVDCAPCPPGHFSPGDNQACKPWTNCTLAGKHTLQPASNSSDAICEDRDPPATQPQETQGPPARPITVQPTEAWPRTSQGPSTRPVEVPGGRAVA

T3: GITR (human, UniProt Q9Y5U5 26-161, limits assumed)
T3 sequence (looked up): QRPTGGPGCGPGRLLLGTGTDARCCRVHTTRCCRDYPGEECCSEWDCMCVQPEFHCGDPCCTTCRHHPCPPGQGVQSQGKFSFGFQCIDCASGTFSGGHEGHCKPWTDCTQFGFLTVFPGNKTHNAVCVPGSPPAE

B1: 2.27.16-u1-1-hIgG1L (antibody, V domains shown)
VH: QEQLQESGPGLVKPSQTLSLTCTVSGGSINSQGYYWSWIRQHPGKGLEWIGYIYDSGSAYYNPSLERRVAISLDTSKNQFSLNLNSVTVADTAVYYCARIVAAGRIDPWGQGTLVTVSS
VL: SYVLTQPPSVSVAPGQTARMTCGGDNIGIKIVHWYQQKAGQAPVLVVYDDNDRPSGIPDRFSGSNSGNTATLTISRVAAGDEADYYCQVWDRRSDHVVFGGGTKLTVL
notes: Fully human antibody
B2: 2.27.16-u1-1-hIgG4L (antibody, V domains shown)
VH: B1 VH
VL: B1 VL
B3: 2.19.8-u1-3-hIgG1L (antibody, V domains shown)
VH: QVQLVESGGGLVKPGGSLRLSCAASGFTFSDYFMSWIRQAPGKGLEWVSYISNAGSSKYYADSVKGRFTISRDNAKNSLYLQMNSLRAEDTAVYYCVRDPYSGSYSGWFDPWGQGTLVTVSS
VL: SYDLTQPPSVSVSPGQTASITCSGDDLGDKYTSWYQQKPGQSPVLVVYQDHKRPSGIPERFSGSNSGNTATLTISGTQAMDEADYYCQAWDKGIVVFGGGTKLTVL
notes: Fully human antibody
B4: 2.19.8-u1-3-hIgG4L (antibody, V domains shown)
VH: B3 VH
VL: B3 VL

What follows are binders tested against T1, mouse 4-1BB extracellular domain, His … (assay: SPR, Biacore T200; antibody captured on Protein G chip, mouse 4-1BB ECD.His as analyte).
Procedure: (§1) Antibodies were characterized for affinity and binding kinetics to human, cynomolgus and mouse 4-1BB by SPR assay using Biacore T200 (GE). Protein G was pre-immobilized to a sensor chip (CMS), and anti-4-1BB antibodies were captured when injected to the chip. Various concentrations of human 4-1BB and running buffer were flowed through the sensor chip for an association phase, and followed by dissociation. The association and dissociation curve was analyzed using Biacore T200 Evaluation software Version 2.0.

| Kd [pM] | koff [s⁻¹] | kon [M⁻¹ s⁻¹] | Binder |
| --- | --- | --- | --- |
| 8490 | 0.00134 | 158000 | B1 |
| 6270 | 0.00136 | 217000 | B2 |
| 26100 | 0.975 | 3.73e+07 | B3 |
| 18400 | 0.215 | 1.17e+07 | B4 |

These binders were tested against T4, cynomolgus 4-1BB extracellular domain, His tag (cynomolgus, UniProt A9YYE7 24-186) (assay: SPR, Biacore T200; antibody captured on Protein G chip, cynomolgus 4-1BB ECD.His as analyte).
T4 construct: extracellular domain; also called cynoPro1.ECD.His; ACRO-41B-C52H4; not shown: His tag
Procedure: as §1

| Kd [pM] | koff [s⁻¹] | kon [M⁻¹ s⁻¹] | Binder |
| --- | --- | --- | --- |
| 142 | 3.07e-05 | 217000 | B1 |
| 439 | 0.000101 | 230000 | B2 |
| 16.4 | 2.96e-05 | 1.81e+06 | B3 |
| 15.8 | 2.93e-05 | 1.86e+06 | B4 |

What follows are binders tested against T5, mouse 4-1BB, full-length, on cells (mouse, UniProt P20334 24-256) (assay: flow cytometry on murine 4-1BB-expressing CHO-K1 cells, PE goat anti-human IgG Fc, MFI).
T5 construct: whole, on cells; also called murine 4-1BB expressing CHO-K1 cells
Procedure: (§2) Murine 4-1BB-expressing CHO-K1 cells were transferred into 96-well U-bottom plates at a density of 1×10⁵ cells/well. Testing antibodies were serially diluted in PBS containing 1% BSA, and incubated with cells at 4° C. for 1 h. After washing, the secondary antibody, PE labeled Goat anti-human IgG Fc Fragment (Jackson ImmunoResearch), was applied and incubated with cells at 4° C. in the dark for 1 h. The cells were then washed and resuspended in PBS and then analyzed by flow cytometer (BD).

| EC50 (read off the curve) [pM] | Binder |
| --- | --- |
| ~900 | B1 |
| ~800 | B2 |

What follows are binders tested against T6, human 4-1BB extracellular domain, His tag (human, UniProt Q07011 24-186) (assay: SPR, Biacore T200; antibody captured on Protein G chip, 4-1BB ECD.His as analyte).
T6 construct: also called hPro1.ECD.His; not shown: C-terminal His tag
Procedure: as §1

| Kd [pM] | koff [s⁻¹] | kon [M⁻¹ s⁻¹] | Binder |
| --- | --- | --- | --- |
| 25.7 | 6.48e-05 | 2.52e+06 | B3 |
| 17.7 | 3.74e-05 | 2.11e+06 | B4 |

The binders below were run against T2, OX40 (assay: ELISA on plate-coated antigen, HRP goat anti-human IgG Fc, OD450-OD540; antibody concentration not given).
Procedure: (§3) Cross-reactivity to TNFR family members OX40, CD40 and GITR was determined by ELISA. Plates (Nunc) were coated with OX40, CD40 or GITR overnight at 4° C. After blocking and washing, anti-4-1BB antibodies were added to the plates and incubated at room temperature for 1 h. The plates were then washed and subsequently incubated with secondary antibody, HRP Conjugated Goat anti-human IgG Fc Fragment antibody (Bethyl), for 45 min. After washing, TMB substrate was added and the color reaction was stopped by 2M HCl. The absorbance at 450 and 540 nm were read using a microplate reader (Molecular Device).

| binding result | Binder |
| --- | --- |
| no binding | B1 |
| no binding | B2 |
| no binding | B3 |
| no binding | B4 |

What follows are binders tested against T3, GITR in the same assay as above.
Procedure: as §3

| binding result | Binder |
| --- | --- |
| no binding | B1 |
| no binding | B2 |
| no binding | B3 |
| no binding | B4 |

These binders were tested against CD40 (human, UniProt P25942 21-193, limits assumed) in the same assay as above.
Procedure: as §3

| binding result | Binder |
| --- | --- |
| no binding | B1 |
| no binding | B2 |
| no binding | B3 |
| no binding | B4 |

The binders below were run against human 4-1BB protein (coated on ELISA plates) (human, UniProt Q07011 24-186, limits assumed) (assay: competition ELISA on plate-coated human 4-1BB; competitor: biotinylated BMK4, detected with streptavidin-HRP, OD450-OD540).
Procedure: Plates were pre-coated with human 4-1BB protein at 4° C. overnight. After blocking, various concentrations of testing antibodies were pre-mixed with biotinylated BMK antibodies and added to the plates. The plates were incubated at ambient temperature for 1 hour. The binding of the BMK antibodies to human 4-1BB was detected by streptavidin-HRP. The color was developed by dispensing TMB substrate, and then stopped by 2N HCl. The absorbance was read at 450 nm and […] using a microplate spectrophotometer.

| IC50 (read off the curve) [pM] | Binder |
| --- | --- |
| ~900 | B3 |
| ~1000 | B4 |

Each binder was assayed against T7, human 4-1BB, full-length, on cells (human, UniProt Q07011 24-255) (assay: flow cytometry on human 4-1BB-expressing CHO-K1 cells, PE goat anti-human IgG Fc, MFI).
T7 construct: also called human 4-1BB expressing CHO-K1 cells; cell surface 4-1BB
Procedure: as §2, with “Human” for “Murine”, “Testing antibodies were serially diluted in PBS containing 1% BSA, and incubated with cells at 4° C. for 1 h.” left out, “re-suspended” for “resuspended”, “by a” for “by”

| EC50 (read off the curve) [pM] | Binder |
| --- | --- |
| ~70 | B3 |
| ~60 | B4 |
